Values quoted from earlier work as cited in article PMC5998221.

Legend:
[1] = biological target: Asp101 (UniProt position 119, KKIVSDGNGMN)
[2] = biological target: Asp119 (UniProt position 137, RCKGTDVQAWI)
[3] = biological target: Asp18 (UniProt position 36, KRHGLDNYRGY)
[4] = biological target: Asp48 (UniProt position 66, TNRNTDGSTDY)
[5] = biological target: Asp52 (UniProt position 70, TDGSTDYGILQ)
[6] = biological target: Asp66 (UniProt position 84, RWWCNDGRTPG)
[7] = biological target: Asp87 (UniProt position 105, ALLSSDITASV)
[8] = biological target: Glu35 (UniProt position 53, CAAKFESNFNT)
[9] = biological target: Glu7 (UniProt position 25, VFGRCELAAAM)

Hen egg white lysozyme (HEWL, lysozyme C) (Gallus gallus)
pKa [1]: 4.5
pKa [2]: 3.5
pKa [3]: 2.8
pKa [4]: 1.4
pKa [5]: 3.6
pKa [6]: 1.2
pKa [7]: 2.2
pKa [8]: 6.1
pKa [9]: 2.6
